For this assay, the target named is fluorescently labeled SpRpn12 (Schizosaccharomyces pombe) (UniProt P50524). In words: fluorescence polarisation. In general terms: In fluorescence polarisation assays a small probe gives low polarisation when free and higher when bound to something large.

By Kd is commonly meant the concentration at which binding is half-saturated. For NQFEYGVDPNLDVELALALELSMAEERARQEVAAQKSSEETEDKKMQE (domain or fragment) [SpRpn10 residues 196-243 (UIM-containing C-terminal sequence)], the Kd is 18 µM. This counts as double-digit micromolar.
